Laboratory results taken from patent US20240287172A1 (SCIRHOM, published 2024).
Residue numbers refer to the chain shown, from its start.

B1: antibody 50 (antibody, V domains shown)
VH: QVQLQQSGAELVRPGASVKVSCKASGYAFSNYLIEWVKQRPGQGLEWIGVINPGSGFTKYNEKFKGKATLTADKSSSTAYMQLSSLTSEDSAVYFCARGLYRAMDYWGQGTSVTVSS
VL: DIQMTQSPASQSASLGESVTITCLASQTIGTWLAWYQQKPGKSPQLLIYAAASLADGVPSRFSGGGSGTKFSFKISSLQAEDFVNYYCQQIYSTPYTFGGGTKLEIK
notes: mouse IgG, kappa light chain; also called clone #50; purified antibody 50
B2: antibody 3 (antibody, V domains shown)
VH: QVTLKESGPGILQPSQTLSLTCSFSGFSLTTFAMGIGWVRQPSGKGLEWLAHIWWDGEKYNNPVLKSRLTISKDTSKNQVFLRIANVDTPDTATYYCARISSIYYIIDNWGQGTSVTVSS
VL: DIVLTQSPATLSVTPGHSVSLSCRASQSISNNLHWYQKKSHESPRLLIKYVSQSISGIPSRFSGSGSGTDFTLSINSVETEDFGMYFCQQSYNWPLTFGAGTKLELK
notes: mouse IgG, kappa light chain; also called clone #3; purified antibody 3

Experiments:
hiR2-FL-H505A-T7 = target: T1, hiR2-FL-H505A-T7 (human, UniProt Q6PJF5 1-856); assay: FACS on MEF-DKO cells expressing the variant, 3 µg/ml antibody
T1 sequence: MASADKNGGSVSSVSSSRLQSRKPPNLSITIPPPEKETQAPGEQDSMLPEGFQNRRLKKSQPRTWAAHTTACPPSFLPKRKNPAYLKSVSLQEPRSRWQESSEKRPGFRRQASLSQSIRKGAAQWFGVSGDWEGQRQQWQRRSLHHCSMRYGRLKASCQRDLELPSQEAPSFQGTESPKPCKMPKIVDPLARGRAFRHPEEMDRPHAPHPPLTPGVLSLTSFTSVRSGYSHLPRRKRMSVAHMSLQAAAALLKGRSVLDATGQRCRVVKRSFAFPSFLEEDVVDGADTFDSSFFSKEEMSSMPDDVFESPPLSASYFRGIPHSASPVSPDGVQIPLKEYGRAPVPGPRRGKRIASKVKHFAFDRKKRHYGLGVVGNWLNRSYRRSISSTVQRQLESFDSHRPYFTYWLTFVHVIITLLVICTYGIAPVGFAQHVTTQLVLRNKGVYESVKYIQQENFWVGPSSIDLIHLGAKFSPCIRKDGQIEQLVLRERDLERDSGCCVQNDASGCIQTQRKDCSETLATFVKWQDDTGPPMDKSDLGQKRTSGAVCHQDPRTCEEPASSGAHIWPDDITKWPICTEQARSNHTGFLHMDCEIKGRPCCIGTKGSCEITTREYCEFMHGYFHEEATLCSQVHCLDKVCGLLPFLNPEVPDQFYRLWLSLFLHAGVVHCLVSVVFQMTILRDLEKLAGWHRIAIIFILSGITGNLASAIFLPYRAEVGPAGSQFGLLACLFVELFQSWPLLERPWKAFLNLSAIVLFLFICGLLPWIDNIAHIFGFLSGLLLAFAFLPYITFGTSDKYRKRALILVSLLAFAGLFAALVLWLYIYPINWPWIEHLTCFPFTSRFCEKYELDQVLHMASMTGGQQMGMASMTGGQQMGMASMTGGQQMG
Outline: (§1)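 Flow cytometry read-out of binding to variant-expressing cells after two-step staining on ice: 1 h with antibody at 3 μg/ml, then 1 h with PE-labelled goat anti-mouse IgG F(ab′)2 diluted 1:100. Controls received FACS buffer without primary antibody.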

hiR2-FL-N584A-T7 = target: T2, hiR2-FL-N584A-T7 (human, UniProt Q6PJF5 1-856); assay: as above
T2 sequence: T1 sequence with A505H, N584A
Outline: as §1

Row | Binder | loss of binding vs wild type (hiR2-FL-H505A-T7) [%] | loss of binding vs wild type (hiR2-FL-N584A-T7) [%]
1 | B1 | ≥ 30 | 
2 | B2 |  | ≥ 30
